Key:
[1] = substrate: Nc1ncnc2c1nc(Sc1cc3c(cc1I)OCO3)n2CCCCCCCCCC[P+](c1ccccc1)(c1ccccc1)c1ccccc1; assay: (§1) Allosteric modulation of recombinant wild-type human TRAP1 ATPase activity expressed in Escherichia coli BL21 (DE3) assessed as substrate Kcat at 5 uM preincubated for 0.5 hrs followed by varying levels of ATP addition and measured after 3 hrs using PiColorLock Gold reagent by colorimetric assay-based Lineweaver-Burk plot analysis (reference value: 0.87 +/- 0.01 10^-2 secs)
[2] = substrate: Nc1ncnc2c1nc(Sc1cc3c(cc1I)OCO3)n2CCCCCCCCCC[P+](c1ccccc1)(c1ccccc1)c1ccccc1; assay: as §1, with “Km” for “Kcat”, “84.42” for “0.87”, “3.84 uM)” for “0.01 10^-2 secs)”
[3] = compound: CC(C)NCCCn1c(Sc2cc3c(cc2I)OCO3)nc2c(N)ncnc21; assay: (§2) Competitive inhibition of recombinant wild-type human TRAP1 ATPase activity expressed in Escherichia coli BL21 (DE3) assessed as ratio of substrate Kcat to Km at 5 uM preincubated for 0.5 hrs followed by varying levels of ATP addition and measured after 3 hrs using PiColorLock Gold reagent by colorimetric assay-based Lineweaver-Burk plot analysis (reference value: 10.3 +/- 0.54 10^-5 /s/uM)
[4] = compound: CC(C)NCCCn1c(Sc2cc3c(cc2I)OCO3)nc2c(N)ncnc21; assay: as §1, with “Competitive inhibition” for “Allosteric modulation”
[5] = substrate: Nc1ncnc2c1nc(Sc1cc3c(cc1I)OCO3)n2CCCCCCCCCC[P+](c1ccccc1)(c1ccccc1)c1ccccc1; assay: as §2, with “Allosteric modulation” for “Competitive inhibition”
[6] = compound: CC(C)NCCCn1c(Sc2cc3c(cc2I)OCO3)nc2c(N)ncnc21; assay: as §2, with “as” for “as ratio of”, “substrate” for “substrate Kcat to”, “84.42” for “10.3”, “3.84 uM)” for “0.54 10^-5 /s/uM)”

B1: Heat shock protein 75 kDa, mitochondrial (Homo sapiens), Q12931 (protein)
chain: MARELRALLLWGRRLRPLLRAPALAAVPGGKPILCPRRTTAQLGPRRNPAWSLQAGRLFSTQTAEDKEEPLHSIISSTESVQGSTSKHEFQAETKKLLDIVARSLYSEKEVFIRELISNASDALEKLRHKLVSDGQALPEMEIHLQTNAEKGTITIQDTGIGMTQEELVSNLGTIARSGSKAFLDALQNQAEASSKIIGQFGVGFYSAFMVADRVEVYSRSAAPGSLGYQWLSDGSGVFEIAEASGVRTGTKIIIHLKSDCKEFSSEARVRDVVTKYSNFVSFPLYLNGRRMNTLQAIWMMDPKDVREWQHEEFYRYVAQAHDKPRYTLHYKTDAPLNIRSIFYVPDMKPSMFDVSRELGSSVALYSRKVLIQTKATDILPKWLRFIRGVVDSEDIPLNLSRELLQESALIRKLRDVLQQRLIKFFIDQSKKDAEKYAKFFEDYGLFMREGIVTATEQEVKEDIAKLLRYESSALPSGQLTSLSEYASRMRAGTRNIYYLCAPNRHLAEHSPYYEAMKKKDTEVLFCFEQFDELTLLHLREFDKKKLISVETDIVVDHYKEEKFEDRSPAAECLSEKETEELMAWMRNVLGSRVTNVKVTLRLDTHPAMVTVLEMGAARHFLRMQQLAKTQEERAQLLQPTLEINPRHALIKKLNQLRASEPGLAQLLVDQIYENAMIAAGLVDDPRAMVGRLNELLVKALERH
Work on B1 yielded a kcat [1] of 2.51 ×10⁻² /s, a Km [2] of 506 µM and a kcat/Km [3] of 0.76 ×10⁻⁵ /s/µM. The kcat [4] was 0.8 ×10⁻² /s, the kcat/Km [5] was 4.99 ×10⁻⁵ /s/µM and the Km [6] was 1050 µM.

From ChEMBL document CHEMBL4602687, “Dual Binding to Orthosteric and Allosteric Sites Enhances the Anticancer Activity of a TRAP1-Targeting Drug” (J Med Chem, 2020)
